Like-named read-outs stand apart in the source and are kept apart here.
What was measured:
[1] = target: Chordin, full-length, mouse (mouse) (UniProt Q9Z0E2); assay: SPR; BIAcore 2000; Chordin immobilised, CV2 proteins perfused; apparent KD from koff/kon; 6 to 9 analyte concentrations, at least three independent experiments
[2] = target: BMP2 (Homo sapiens) (UniProt P12643); assay: SPR; BIAcore 2000; BMP2 immobilised, CV2 proteins perfused; apparent KD from koff/kon; 6 to 9 analyte concentrations, at least three independent experiments
Sequence of BMP2 (Homo sapiens) (P12643 283-396): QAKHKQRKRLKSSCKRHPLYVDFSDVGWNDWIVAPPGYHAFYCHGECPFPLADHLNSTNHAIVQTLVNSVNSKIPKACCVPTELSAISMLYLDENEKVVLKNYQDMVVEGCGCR

[3] = target: VWC2 domain of Chordin, mouse (mouse); assay: SPR; BIAcore 2000; VWC2 domain of Chordin immobilised, CV2 proteins perfused; apparent KD from koff/kon; 6 to 9 analyte concentrations, at least three independent experiments
[4] = target: BMP2 (Homo sapiens) (UniProt P12643); details: cited from earlier work
[5] = target: Crossveinless-2 (CV2), full-length, zebrafish (zebrafish); assay: SPR; BIAcore 2000; CV2 immobilised on the chip (legend of Figure 1E: CV2-N), Chordin (50-600 nM) or Chordin VWC2 (10-120 nM) in solution; apparent KD

Sequence of Chordin, full-length, mouse (mouse) (Q9Z0E2 27-948): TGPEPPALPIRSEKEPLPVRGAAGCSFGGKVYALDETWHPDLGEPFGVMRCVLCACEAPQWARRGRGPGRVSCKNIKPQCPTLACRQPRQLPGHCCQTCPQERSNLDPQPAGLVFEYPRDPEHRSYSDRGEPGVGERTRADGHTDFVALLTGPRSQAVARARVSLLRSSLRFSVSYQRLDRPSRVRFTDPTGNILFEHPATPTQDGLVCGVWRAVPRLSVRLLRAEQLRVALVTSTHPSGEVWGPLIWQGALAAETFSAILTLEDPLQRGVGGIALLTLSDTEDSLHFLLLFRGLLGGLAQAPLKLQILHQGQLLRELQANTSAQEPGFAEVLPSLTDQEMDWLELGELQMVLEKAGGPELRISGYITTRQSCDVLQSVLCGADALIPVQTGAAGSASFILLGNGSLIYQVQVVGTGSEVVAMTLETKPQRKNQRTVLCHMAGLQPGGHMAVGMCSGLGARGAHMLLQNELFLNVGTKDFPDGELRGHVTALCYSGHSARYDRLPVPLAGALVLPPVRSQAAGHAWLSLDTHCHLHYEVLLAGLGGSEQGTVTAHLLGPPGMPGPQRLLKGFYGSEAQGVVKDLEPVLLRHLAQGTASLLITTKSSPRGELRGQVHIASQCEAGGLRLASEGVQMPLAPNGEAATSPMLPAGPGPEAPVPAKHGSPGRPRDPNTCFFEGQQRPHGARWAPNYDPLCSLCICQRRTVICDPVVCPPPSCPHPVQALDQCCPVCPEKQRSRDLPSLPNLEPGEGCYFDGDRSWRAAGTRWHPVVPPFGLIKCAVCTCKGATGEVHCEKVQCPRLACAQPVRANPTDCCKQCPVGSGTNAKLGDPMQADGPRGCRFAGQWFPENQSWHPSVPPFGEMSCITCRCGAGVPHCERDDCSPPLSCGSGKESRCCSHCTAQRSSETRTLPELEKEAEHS
Sequence of Chordin (Q9H2X0 27-955): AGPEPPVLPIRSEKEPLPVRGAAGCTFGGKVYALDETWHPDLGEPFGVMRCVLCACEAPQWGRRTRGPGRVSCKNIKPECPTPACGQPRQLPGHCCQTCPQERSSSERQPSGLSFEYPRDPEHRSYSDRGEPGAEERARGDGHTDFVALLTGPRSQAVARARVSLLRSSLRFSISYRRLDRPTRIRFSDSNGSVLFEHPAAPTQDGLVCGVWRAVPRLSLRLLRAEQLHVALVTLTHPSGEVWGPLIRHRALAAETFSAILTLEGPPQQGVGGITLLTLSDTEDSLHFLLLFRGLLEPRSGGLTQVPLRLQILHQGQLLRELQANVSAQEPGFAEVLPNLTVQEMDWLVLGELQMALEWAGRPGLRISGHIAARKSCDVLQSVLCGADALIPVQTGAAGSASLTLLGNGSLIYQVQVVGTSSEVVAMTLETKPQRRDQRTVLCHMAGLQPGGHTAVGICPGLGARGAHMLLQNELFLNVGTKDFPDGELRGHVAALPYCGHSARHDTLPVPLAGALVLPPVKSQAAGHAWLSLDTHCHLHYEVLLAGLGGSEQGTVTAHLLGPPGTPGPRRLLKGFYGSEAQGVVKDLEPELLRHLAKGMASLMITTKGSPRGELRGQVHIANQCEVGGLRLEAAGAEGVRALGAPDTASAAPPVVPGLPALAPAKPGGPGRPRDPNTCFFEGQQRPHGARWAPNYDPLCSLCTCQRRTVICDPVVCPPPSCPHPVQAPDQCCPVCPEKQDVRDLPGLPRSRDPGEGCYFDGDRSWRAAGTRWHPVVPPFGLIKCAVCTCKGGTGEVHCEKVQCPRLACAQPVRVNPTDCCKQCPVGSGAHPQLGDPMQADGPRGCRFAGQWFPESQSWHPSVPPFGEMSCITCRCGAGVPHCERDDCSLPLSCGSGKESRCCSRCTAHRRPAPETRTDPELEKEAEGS

**Q.** With CV2 T5P/I21R (natural protein) as the substance, how does the Kd [1] read?
**A.** 183 nM

**Q.** What about the Kd [2] of the same substance?
**A.** 18000 nM

**Q.** And the Kd [3]?
**A.** 172 nM

**Q.** What does the source list for CV2 ΔClip-SD1 (domain or fragment)?
**A.** Kd [1]: 188 nM; Kd [3]: 170 nM

**Q.** With CV2 ΔSD2 (domain or fragment) as the substance, how does the Kd [2] read?
**A.** 22 nM

**Q.** Which Kd [2] does the source give for CV2-VWC1-3 (domain or fragment) here?
**A.** 24 nM

**Q.** Which results are given for CV2-VWC1-5 (CV2-N) (domain or fragment)?
**A.** Kd [1]: 170 nM; Kd [2]: 25 nM; Kd [3]: 140 nM

**Q.** Which Kd [4] does the source give for Chordin (from UniProt Q9H2X0) here?
**A.** 20 nM

**Q.** For “Crossveinless-2 (CV2), full-length, zebrafish (natural protein)”, which Kd [1] is on record?
**A.** 175 nM

**Q.** What about the Kd [2] of the same substance?
**A.** 22 nM

**Q.** And the Kd [3]?
**A.** 150 nM

**Q.** Which Kd [5] does the source give for “VWC2 domain of Chordin, mouse (domain or fragment)” here?
**A.** 5 nM
